Here are results for 3 molecules from article PMC8982864 (PLoS Biology, 2022).

For test [1], the target named is CSPG4 D1401-560 401-560 (Homo sapiens) (UniProt Q6UVK1). Particulars: cited from earlier work.
Test [2] deals with FZD2 CRD (CRD2) CRD (Homo sapiens) (UniProt Q14332). As to conditions: cited from earlier work.
In test [3] the target is CSPG4 domain 1 fragment, residues 401-560 (D1401-560), C-terminal GFP (UniProt Q6UVK1). The test can be described thus: Bio-layer interferometry (Octet Red 96, ForteBio). Particulars: pH 7.5; 25°C; PBS (composition not stated).
Test [4] concerns the target Frizzled-2 cysteine-rich domain Fc fusion (FZD2-CRD-Fc, 'CRD2') (UniProt Q14332). The test can be described thus: Bio-layer interferometry (Octet Red 96, ForteBio). As to conditions: 25°C, PBS (composition not stated). Background: BLI is a label-free optical method that tracks binding on a fibre tip over time.
For test [5], the target named is TcdB-biotin (biotinylated full-length TcdB) (Clostridioides difficile (VPI 10463 …, UniProt P18177 1-2366)). The test can be described thus: ELISA. Particulars: both partners purified. (In general: An ELISA detects its analyte on a solid surface through an enzyme-linked reagent.)

Chain of CSPG4 domain 1 fragment, residues 401-560 (D1401-560), C-terminal GFP (Q6UVK1 whole entry, the tested form may be a part): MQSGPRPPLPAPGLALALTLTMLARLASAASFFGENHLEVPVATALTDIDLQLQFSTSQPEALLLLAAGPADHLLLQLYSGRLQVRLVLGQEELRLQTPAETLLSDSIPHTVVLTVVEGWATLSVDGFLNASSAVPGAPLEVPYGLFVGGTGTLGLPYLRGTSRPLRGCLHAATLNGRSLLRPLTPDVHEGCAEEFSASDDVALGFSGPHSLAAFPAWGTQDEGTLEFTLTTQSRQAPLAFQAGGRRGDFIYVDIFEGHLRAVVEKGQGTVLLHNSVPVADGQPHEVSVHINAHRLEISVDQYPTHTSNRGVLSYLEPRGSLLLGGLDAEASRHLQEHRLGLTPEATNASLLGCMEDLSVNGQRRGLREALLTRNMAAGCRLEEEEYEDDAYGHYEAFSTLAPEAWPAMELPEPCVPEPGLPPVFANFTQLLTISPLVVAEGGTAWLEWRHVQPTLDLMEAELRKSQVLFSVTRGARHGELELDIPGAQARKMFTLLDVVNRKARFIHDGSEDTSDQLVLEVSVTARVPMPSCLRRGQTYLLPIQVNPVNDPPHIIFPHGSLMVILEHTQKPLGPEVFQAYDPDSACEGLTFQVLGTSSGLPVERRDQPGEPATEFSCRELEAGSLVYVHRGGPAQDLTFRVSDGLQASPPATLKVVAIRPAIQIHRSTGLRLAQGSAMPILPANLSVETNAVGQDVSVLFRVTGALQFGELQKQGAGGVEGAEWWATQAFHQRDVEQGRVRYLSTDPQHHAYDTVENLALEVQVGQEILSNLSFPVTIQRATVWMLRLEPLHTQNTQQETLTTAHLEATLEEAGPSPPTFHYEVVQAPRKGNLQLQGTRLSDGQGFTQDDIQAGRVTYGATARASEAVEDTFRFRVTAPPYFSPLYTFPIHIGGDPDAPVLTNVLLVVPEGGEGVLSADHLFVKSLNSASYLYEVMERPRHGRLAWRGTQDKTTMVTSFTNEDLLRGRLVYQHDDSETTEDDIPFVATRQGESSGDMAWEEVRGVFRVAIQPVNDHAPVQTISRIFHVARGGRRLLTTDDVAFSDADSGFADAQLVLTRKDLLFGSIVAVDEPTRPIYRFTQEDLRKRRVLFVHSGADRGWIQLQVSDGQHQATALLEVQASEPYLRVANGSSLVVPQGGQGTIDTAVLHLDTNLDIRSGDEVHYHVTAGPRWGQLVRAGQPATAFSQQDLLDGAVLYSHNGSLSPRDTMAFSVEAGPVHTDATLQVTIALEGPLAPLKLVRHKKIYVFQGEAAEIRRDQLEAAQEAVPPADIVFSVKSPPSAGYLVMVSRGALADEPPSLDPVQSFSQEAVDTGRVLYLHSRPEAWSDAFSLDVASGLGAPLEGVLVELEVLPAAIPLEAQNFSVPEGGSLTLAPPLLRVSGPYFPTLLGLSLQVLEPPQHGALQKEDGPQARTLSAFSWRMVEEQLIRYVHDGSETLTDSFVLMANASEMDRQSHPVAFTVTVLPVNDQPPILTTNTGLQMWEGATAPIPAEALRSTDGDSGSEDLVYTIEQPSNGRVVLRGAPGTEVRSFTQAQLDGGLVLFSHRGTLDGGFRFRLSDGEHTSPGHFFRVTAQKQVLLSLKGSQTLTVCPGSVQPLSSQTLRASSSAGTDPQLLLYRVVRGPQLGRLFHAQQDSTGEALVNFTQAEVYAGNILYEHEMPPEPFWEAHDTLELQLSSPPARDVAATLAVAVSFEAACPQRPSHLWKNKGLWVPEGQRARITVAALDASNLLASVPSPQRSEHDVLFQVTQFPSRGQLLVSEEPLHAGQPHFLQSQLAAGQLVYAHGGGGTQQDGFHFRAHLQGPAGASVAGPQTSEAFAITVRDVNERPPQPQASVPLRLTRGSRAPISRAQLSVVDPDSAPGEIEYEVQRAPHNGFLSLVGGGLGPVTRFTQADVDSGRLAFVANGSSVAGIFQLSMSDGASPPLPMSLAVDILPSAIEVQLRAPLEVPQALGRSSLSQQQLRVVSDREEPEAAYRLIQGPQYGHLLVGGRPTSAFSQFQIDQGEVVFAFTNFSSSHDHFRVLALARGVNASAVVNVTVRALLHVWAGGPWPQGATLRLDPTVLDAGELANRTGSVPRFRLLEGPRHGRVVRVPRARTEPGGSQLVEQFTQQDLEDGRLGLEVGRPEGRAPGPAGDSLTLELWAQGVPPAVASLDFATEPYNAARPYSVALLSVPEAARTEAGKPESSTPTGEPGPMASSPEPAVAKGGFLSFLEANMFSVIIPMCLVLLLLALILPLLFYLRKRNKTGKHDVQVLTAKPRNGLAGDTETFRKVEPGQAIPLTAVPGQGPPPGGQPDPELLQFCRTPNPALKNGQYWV

In the case of TcdB (from UniProt P18177), the results for the dissociation constant Kd in test [1] and in test [2] were 0.029 µM and 0.019 µM, respectively.
For “Toxin B (TcdB), full length, C-terminal 6xHis”, the KD result in test [3] was “approximately 10 nM”; in test [4] (pH 5), “approximately 1 μM”; in test [4] (pH 7.5), “approximately 12 nM”.

B1: CSPG4 domain 1 fragment D1_(401-560) with C-terminal GFP tag (domain or fragment, UniProt Q6UVK1 401-560, looked up)
chain: LAPEAWPAMELPEPCVPEPGLPPVFANFTQLLTISPLVVAEGGTAWLEWRHVQPTLDLMEAELRKSQVLFSVTRGARHGELELDIPGAQARKMFTLLDVVNRKARFIHDGSEDTSDQLVLEVSVTARVPMPSCLRRGQTYLLPIQVNPVNDPPHIIFPHG
notes: not shown: GFP, C-terminal, kept
For the molecule B1, the binding result in test [5] is listed as “binds”.

What is called Kd is the constant that tells how readily two partners part at equilibrium.
